Assay results reported in paper PMC6328864, “Regulation of Myosin-5b by Rab11a and the Rab11 family interacting protein 2” (Bioscience Reports, 2018).

T1: Flag-Myo5b-GTD (Rattus norvegicus (Rat), UniProt P70569)
T1 chain: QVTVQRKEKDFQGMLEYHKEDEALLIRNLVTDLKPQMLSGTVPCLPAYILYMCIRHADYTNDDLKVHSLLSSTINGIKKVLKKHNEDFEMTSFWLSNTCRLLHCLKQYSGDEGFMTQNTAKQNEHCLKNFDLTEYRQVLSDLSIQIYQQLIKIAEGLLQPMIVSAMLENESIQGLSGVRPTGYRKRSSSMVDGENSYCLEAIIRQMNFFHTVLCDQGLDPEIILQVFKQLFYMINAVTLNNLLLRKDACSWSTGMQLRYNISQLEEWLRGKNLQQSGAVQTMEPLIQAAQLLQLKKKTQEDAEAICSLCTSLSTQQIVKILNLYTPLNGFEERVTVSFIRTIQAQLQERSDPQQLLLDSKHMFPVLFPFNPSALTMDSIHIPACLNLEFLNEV

B1: GST–Rab11a (natural protein, human, UniProt P62491 1-216, looked up)
chain: MGTRDDEYDYLFKVVLIGDSGVGKSNLLSRFTRNEFNLESKSTIGVEFATRSIQVDGKTIKAQIWDTAGQERYRAITSAYYRGAVGALLVYDIAKHLTYENVERWLKELRDHADSNIVIMLVGNKSDLRHLRAVPTDEARAFAEKNGLSFIETSALDSTNVEAAFQTILTEIYRIVSQKQMSDRRENDMSPSNNVVPIHVPPTTENKPKVQCCQNI
notes: Rab11a, human (cDNA by RT-PCR from human brain cDNA); GTPγS also in the pull-down buffers; source: E. coli, purified (GSH-Sepharose); not shown: GST, N-terminal, kept

Key:
GST–Rab11a = biological target: B1; assay: pull-down; GSH-Sepharose; 0.5 μM GST–Rab11a (bait), 0–1.0 μM Flag-Myo5b-GTD, 0–1.0 μM Flag-FIP2-RBD; Buffer-B with 100 mM NaCl and 3 μM GTPγS; 4°C, 1 h; eluted with 20 mM GSH; Western blot (anti-Flag, anti-GST); conditions: both partners purified
Flag-Myo5b-GTD = biological target: T1, Flag-Myo5b-GTD; assay: GST pull-down / anti-Flag pull-down; Rab11a loaded with GTPγS/Mg2+; binding competed away by FIP2-RBD
[1] = biological target: T2, Flag-FIP2 (full-length Rab11 family interacting protein 2) (human, UniProt Q7L804 1-512); assay: pull-down; GSH-Sepharose; 0.5 μM GST–Rab11a (bait), 0–0.5 μM Flag-Myo5b-Tail, 0–1.0 μM Flag-FIP2 or Flag-FIP2-RBD; Buffer-B with 100 mM NaCl and 3 μM GTPγS; 4°C, 1 h; eluted with 20 mM GSH; Coomassie staining; conditions: both partners purified
T2 construct: not shown: Flag, N-terminal, kept

Binder	binding result (GST–Rab11a)	binding result (Flag-Myo5b-GTD)	binding result [1]
Flag-FIP2-RBD (domain or fragment, human, UniProt Q7L804 452-512, looked up, not shown: Flag, N-terminal, kept) TYEEVLQELVKHKELLRRKDTHIRELEDYIDNLLVRVMEETPSILRVPYEPSRKAGKFSNS	binds	–	–
B1	–	binds	binds
